Measured values from publication PMC5725786, “Characterization of interactions between hepatitis C virus NS5B polymerase, annexin A2 and RNA – effects on NS5B catalysis and allosteric inhibition”.

Experiments:
[1] = target: Bovine annexin A2 engineered variant unable to bind RNA (mAnxA2) (bovine) (UniProt P04272); assay: SPR; AnxA2 or mAnxA2 immobilised on a CM5 chip by amine coupling, NS5B (31 to 500 nM) as analyte; multi cycle with regeneration (2 M NaCl and 2 M MgCl2); 25 °C, HBS-EP pH 7.4 with 70 uM Ca2+ and 1 mM Mg2+; approximate steady state analysis, apparent KD
[2] = target: Bovine annexin A2 (bovine) (UniProt P04272); assay: as above
[3] = target: T1, AnxA2 (annexin A2, wt) (Bos taurus (bovine), UniProt P04272 1-339); assay: SPR; kinetic 1:1 fit (ka 0.99e6 1/Ms, kd 0.002 1/s); 70 uM Ca2+, 1 mM Mg2+; AnxA2 immobilized; HBS-EP: 10 mM HEPES pH 7.4, 150 mM NaCl, 3 mM EDTA, 0.005% Surfactant P20, 70 uM Ca2+, 1 mM Mg2+, 25 °C; conditions: protein: recombinant; single strand
[4] = target: mAnxA2 (Bos taurus (bovine), UniProt P04272 1-339, K308S;K309S;K310S;K313S;Y317S;Q321S); assay: SPR; 3-100 nM RNA over immobilized mAnxA2; 70 uM Ca2+, 1 mM Mg2+; HBS-EP: 10 mM HEPES pH 7.4, 150 mM NaCl, 3 mM EDTA, 0.005% Surfactant P20, 70 uM Ca2+, 1 mM Mg2+, 25 °C; conditions: protein: recombinant; single strand
[5] = target: T1, AnxA2 (annexin A2, wt); assay: SPR; steady-state analysis; 70 uM Ca2+, 1 mM Mg2+; AnxA2 immobilized; HBS-EP: 10 mM HEPES pH 7.4, 150 mM NaCl, 3 mM EDTA, 0.005% Surfactant P20, 70 uM Ca2+, 1 mM Mg2+, 25 °C; conditions: protein: recombinant; single strand

Molecule	Kd [1] [nM]	Kd [2] [nM]	Kd [3] [nM]	binding result [4]	Kd [5] [nM]
HCV NS5B polymerase, ectodomain (NS5BΔ21), genotype 1b (enzyme)	240	30	–	–	–
GGGGAUUG (ssRNA) [8-mer RNA]	–	–	2	no binding	8.3
